The results in this text go back to US10227388B2, “Peptides and combination of peptides for use in immunotherapy against non-small cell lung cancer and other cancers” (immatics biotechnologies GmbH, priority 2015, dated 2019).

The assay has as its target HLA-A*02:01 (Homo sapiens, UniProt P04439, D140Y/D185E/D98H/E176V/E277Q/G131W/G231S/I119V/I121R/I166T/I218V/L300P/L318F/N151K/N90K/P208A/P217A/Q86G/Q94H/R138H/R169H/T345S). The assay is described as follows: MHC binding assay (UV-ligand exchange, ELISA, peptide exchange yield). The note with it: binding of HLA-class I restricted peptides to HLA-A*02:01. A digest of the protocol:
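Exchange yield was quantified as stabilized β2m-containing complex: monomers diluted 100-fold bound to streptavidin-coated wells, probed with HRP-conjugated anti-β2m, read at 450 nm after TMB. Complexes had been generated by UV cleavage of a photolabile ligand and replacement with the candidate peptide.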
(ELISA stands for enzyme-linked immunosorbent assay.)

Take “329 (FLVTLNNVEV; listed as Homo sapiens) [compound 329]”: the “Peptide exchange (MHC class I binding score, peptide exchange yield)” value (“Peptide exchange” below) is recorded as “″++++″ (≥75% = ++++)”.
On to “185 (FLIDDKGYTL; listed as Homo sapiens) [compound 185]”, for which the “Peptide exchange” value is on record as “″++″ (≥20% = ++)”.
As for “598 (FLFPHSVLV; listed as Homo sapiens) [compound 598]”, the entry is “″+++″ (≥50% = +++)”; as for “547 (TLDITPHTV; listed as Homo sapiens) [compound 547]”, “″+++″ (≥50% = +++)”; as for “362 (TLYGLSVLL; listed as Homo sapiens) [compound 362]”, “″+++″ (≥50% = +++)”.
Turning to “220 (LLQKFVPEI; listed as Homo sapiens) [compound 220]”, the “Peptide exchange” value is on record as “″++″ (≥20% = ++)”.
As for “110 (FLSQVDFEL; listed as Homo sapiens) [compound 110]”, the entry is “″+++″ (≥50% = +++)”; as for “94 (YLIDIKTIAI; listed as Homo sapiens) [compound 94]”, “″++″ (≥20% = ++)”.
On to “623 (YLVEDIQHI; listed as Homo sapiens) [compound 623]”, for which the “Peptide exchange” value is on record as “″+++″ (≥50% = +++)”.
On to “117 (ILPDGEDFLAV; listed as Homo sapiens) [compound 117]”, for which the “Peptide exchange” value is “″+++″ (≥50% = +++)”.
For the substance “217 (ALIHPVSTV; listed as Homo sapiens) [compound 217]”, the “Peptide exchange” value is given as “″++″ (≥20% = ++)”.
In the case of “375 (SLTETIEGV; listed as Homo sapiens) [compound 375]”, the “Peptide exchange” value is on record as “″++″ (≥20% = ++)”.
Take “500 (SLMEDQVLQL; listed as Homo sapiens) [compound 500]”: the “Peptide exchange” value is reported as “″+++″ (≥50% = +++)”.
As to “229 (RLPGPLGTV; listed as Homo sapiens) [compound 229]”, the “Peptide exchange” value was “″++″ (≥20% = ++)”.
As to “333 (FLPDANSSV; listed as Homo sapiens) [compound 333]”, the “Peptide exchange” value was “″++″ (≥20% = ++)”.
For the substance “180 (FQIDPHSGLVTV; listed as Homo sapiens) [compound 180]”, the “Peptide exchange” value is reported as “″++″ (≥20% = ++)”.
In the case of “139 (SVMEVNSGIYRV; listed as Homo sapiens) [compound 139]” it was “″+++″ (≥50% = +++)”; in that of “164 (ALLPQPKNLTV; listed as Homo sapiens) [compound 164]”, “″+++″ (≥50% = +++)”; in that of “266 (KITDTLIHL; listed as Homo sapiens) [compound 266]”, “″+++″ (≥50% = +++)”.
Regarding “57 (TLAELQPPVQL; listed as Homo sapiens) [compound 57]”, the “Peptide exchange” value is recorded as “″+++″ (≥50% = +++)”.
As for “300 (ALLGQTFSL; listed as Homo sapiens) [compound 300]”, the entry is “″+++″ (≥50% = +++)”.
As to “99 (ALVSKGLATV; listed as Homo sapiens) [compound 99]”, the “Peptide exchange” value is recorded as “″++″ (≥20% = ++)”.
As to “444 (GLLRDEALAEV; listed as Homo sapiens) [compound 444]”, the “Peptide exchange” value was “″+++″ (≥50% = +++)”.
In the case of “494 (ALQPEPIKV; listed as Homo sapiens) [compound 494]”, the “Peptide exchange” value was “″++″ (≥20% = ++)”.
“462 (KLAKQPETV; listed as Homo sapiens) [compound 462]”: the “Peptide exchange” value is recorded as “″+++″ (≥50% = +++)”.
